Results as given in article PMC11931385, “Structural and functional analysis of cancer-associated missense variants in the retinoblastoma protein pocket domain” (The Journal of Biological Chemistry, 2025).
Where a chain is given by its changes, count along the chain named. Names and notes keep the numbering of the source. No end group written: not given here. TMR = tetramethyl rhodamine dye

Assays:
Test in all cases: fluorescence polarisation; 25 °C; unlabeled Rb^P titrated against 1.5 nM TMR-E2F1^TD or 7.5 nM TMR-E7^LxCxE; 25 mM Tris pH 8.0, 200 mM NaCl, 1 mM DTT, 0.1% Tween-20; 2 min incubation; quadratic fit; apparent Kd for the variants, Kd for WT
Conditions in all cases: both partners purified
Rb^P R668H = target: T1, Rb^P R668H (human, UniProt P06400 380-788, R668H)
T1 construct: also called variant 52
T1 sequence (looked up): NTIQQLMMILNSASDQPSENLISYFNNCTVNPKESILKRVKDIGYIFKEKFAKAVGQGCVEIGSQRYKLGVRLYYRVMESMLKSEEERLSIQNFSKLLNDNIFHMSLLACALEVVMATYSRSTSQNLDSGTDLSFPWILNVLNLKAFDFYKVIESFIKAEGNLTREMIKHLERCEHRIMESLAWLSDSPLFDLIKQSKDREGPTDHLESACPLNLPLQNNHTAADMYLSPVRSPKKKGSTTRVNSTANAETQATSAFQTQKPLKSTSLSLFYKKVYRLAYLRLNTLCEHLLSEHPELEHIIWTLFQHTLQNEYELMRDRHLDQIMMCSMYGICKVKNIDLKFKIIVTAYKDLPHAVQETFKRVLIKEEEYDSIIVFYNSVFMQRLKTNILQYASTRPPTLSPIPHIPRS

Rb^P L550I = target: T2, Rb^P L550I (human, UniProt P06400 380-788, L550I)
T2 construct: also called variant 27
T2 sequence (looked up): T1 sequence (looked up) with L171I, H289R

Rb^P K548N = target: T3, Rb^P K548N (human, UniProt P06400 380-788, K548N)
T3 construct: also called variant 26
T3 sequence (looked up): T1 sequence (looked up) with K169N, H289R

Rb^P S443L = target: T4, Rb^P S443L (human, UniProt P06400 380-788, S443L)
T4 construct: also called variant 2
T4 sequence (looked up): T1 sequence (looked up) with S64L, H289R

Rb^P V654L = target: T5, Rb^P V654L (human, UniProt P06400 380-788, V654L)
T5 construct: also called variant 47
T5 sequence (looked up): T1 sequence (looked up) with V275L, H289R

B1: TMR-E2F1^TD, peptide of the E2F1 transactivation domain (peptide)
peptide: {TMR}-GEGIRDLFDCDFGDLTPLD
notes: also called E2F^TD; source: synthetic peptide, bought: GenScript
Rb^P R668H
  Kd: 13 nM
Rb^P L550I
  Kd: 41 nM
Rb^P K548N
  Kd: 133 nM
Rb^P S443L
  Kd: 31 nM
Rb^P V654L
  Kd: 18 nM

B2: TMR-E7^LxCxE, LxCxE peptide of the E7 oncoprotein from HPV (peptide)
peptide: DLYCYEQLN
modifications: also: TMR label, position not given here
notes: source: synthetic peptide, bought: GenScript
Rb^P R668H
  Kd: 7 nM
Rb^P L550I
  Kd: 3 nM
Rb^P K548N
  Kd: 6 nM
Rb^P S443L
  Kd: 9 nM
Rb^P V654L
  Kd: 11 nM
